Tested on: K4 kissing-loop RNA reporter
Assay: apparent KD of K4 kissing-loop reporter; higher = weaker reporter binding
Details: Eterna round: R107
Procedure: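 RNA-MaP round R107: designed RNA switches with theophylline, tryptophan, arginine or FMN aptamers are transcribed on-chip within common flanks. They are titrated with a labelled K4 kissing-loop RNA reporter in RNA-MaP buffer (100 mM Tris pH 7.5, 80 mM KCl, 4 mM MgCl2), without ligand or with the indicated ligand. Median apparent KD per design.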

[1] = input ligand: theophylline 20 uM
[2] = input ligand: tryptophan 2.4 mM
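Further: bound reporter read as fluorescence of individual clusters on recovered sequencing chips by microscopy, with normalized cluster intensities fitted with a binding model.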

Sequence | apparent KD of K4 kissing-loop reporter (input ligand: FMN 200 uM) | apparent KD of K4 kissing-loop reporter (input ligand: arginine 13.2 mM) | apparent KD of K4 kissing-loop reporter (input ligand: none) | apparent KD of K4 kissing-loop reporter [1] | apparent KD of K4 kissing-loop reporter [2]
AAAUAGAUCAGUCACCCAGUGAUGUUGGAAGGAGCGUGCGAAAGCACAGGUAGGUCGCCAAAAUAAAAUUGGCUGAUCAAAAUAA | 304 nM | 310 nM | 361 nM | 485 nM | 195 nM
AAAUCGUUCAGAAGGAGCGUGGUAUAAUCAUUAAUAUUUAUUACGAGUGAUGUUCGUAAUUCACAGGUAGGUCGCUGAUCGAUAA [JR_SSArginiB_Sub006] | 88.6 nM | 94.6 nM | 86 nM | 99.8 nM | 82.7 nM
AAAUGCAGCAAACGAGUGAUGUUCGACGAUACCAGCCUCGAUAGAGGCCCUUGGCAGCGUACAUCAAAGCCAAGGGCUGCUAAAA [#SwitchBubble 3] | 483 nM | 463 nM | 552 nM | 499 nM | 454 nM
AAAUUCUUUUUUUUAUUUAACUUUUCAGAAGGAGCGUGGUAGUACACAGGUAGGUCGCUGAAUUUUGGACUAGUGAUGUUAGUUA [JR_SSArginiA_Sub007] | 156 nM | 154 nM | 158 nM | 228 nM | 153 nM
AAAUUCUUUUUUUUAUUUAACUUUUCAGAAGGAGCGUGGUAGUUCACAGGUAGGUCGCUGAAUUUUGGACUAGUGAUGUUAGUUA [JR_SSArginiA_Sub006] | 148 nM | 214 nM | 234 nM | 216 nM | 158 nM
AAAUUUAAUAUAUUUAAUUAAUUAUGUGAUACCAGACAUUUAUAAGUCCCUUGGCAGCACUUUGCAGUGAUGUUGCAUAUAAUAA [JR_SSTheophyA_Sub013] | 89 nM | 185 nM | 121 nM | 157 nM | 99.2 nM
AAAUUUUCAAGUGAUACCAGACAUCUCUAUUACAUUAAUAUAGCUAAGUGAUGUUUAGCAGUCCCUUGGCAGCACAAUUUAAUUA [JR_SSTheophyB_Sub013] | 255 nM | 202 nM | 297 nM | 337 nM | 215 nM
AACAGCAAUGCGGCCGCCACUUCGAGGUCAGUGAUGUUGACGGAAUUAAAUAAAGAUCCCAAGAGGAGGACCGGGCAGUGCUGUU [whbob_SS_Tryp_B_t25] | 468 nM | 465 nM | 499 nM | 410 nM | 289 nM
AACAGCAAUGCGGCCGCCACUUCGAGGUCAGUGAUGUUGACGGGAUUAAAUAAAGAUCCCAAGAGGAGGACCGGGCAGUGCUGUU [whbob_SS_Tryp_B_t26] | 225 nM | 195 nM | 215 nM | 176 nM | 192 nM
AACCACUCGUUACAUCACUAUCGAGUGGAACGAGGACCGGUACGGCCGCCACUCGAUUAGAUGCAGUGAUGUUGCAUCUUAGAAU [KL-SSTryp-A (BrourdMod)3 #dotplot2 strengthened] | 195 nM | 163 nM | 165 nM | 176 nM | 133 nM
AACCACUCGUUACAUCACUAUCGAGUGGAACGAGGACCGGUACGGCCGCCACUCGGUAACAAGCAGUGAUGUUGCUUGUAAGAAU [KL-SSTryp-A (BrourdMod)2 #dotplot2 strengthened] | 298 nM | 252 nM | 307 nM | 312 nM | 164 nM
AACCGAGGUAAUCCACAAUGAUUAGAAGAUACCAGAUAUAUAAAUAUCCCUUGGCAGCUUUGAAUGAGUGAUGUUCAUUUGUCAU [KL-SSTheo-A11] | 126 nM | 207 nM | 159 nM | 214 nM | 104 nM
AACCGCCAGUCGGCCGCCACUCACAGCAGUGAUGUUGCUGAAAAUCUAAAAGAGUGAUGUUCUUAGAGGACCGGGACUCCAGGCG [Same State Tryptophan B GF 5] | 260 nM | 76.9 nM | 218 nM | 56.7 nM | 145 nM
AACGCUGGUGAAUAACACUAGCGAAAAUUCCGAGGACCGGUACGGCCGCCACUCGGCUAACUGCGAGUGAUGUUCGAUAAUAAAA [Mat - Mod of OpenEnded 3 - D9] | 80.3 nM | 183 nM | 109 nM | 189 nM | 60.2 nM
AACGGCCAGUCGGCCGCCACUCGAUGCAGUGAUGUUGCUAACUUUCUAAAAGAGUGAUGUUCAUGGAGGACCGGGACUAAUGUAA [#29 K4 Tryptophan B Exclusion] | 349 nM | 298 nM | 346 nM | 382 nM | 228 nM
AACUCUCAGACACCUGAGUGAUGUUCAGGCCGAGGACCGGUACGGCCGCCACUCGGGUCUGAGAGAGGUUAUCAAAGAUAGCCAA [Omei KL Tryp A SS A v3] | 675 nM | 244 nM | 336 nM | 304 nM | 338 nM
AACUCUCAGACAUUUGAGUGAUGUUCAGGCCGAGGACCGGUACGGCCGCCACUCGGGUCUGAGAGAGGUUAUCAAAGAUAGCCAA [Omei KL Tryp A SS A v6] | 467 nM | 179 nM | 234 nM | 214 nM | 385 nM
AACUGUCAAGGACAACAUUACUGAGGUGAUACCAGCAUCGAAAGAUGCCCUUGGCAGCACUAACUUGCAGUGAUGUUGCAAGUAA [BrourdMod 2 - Jieux - Exclusion - Theophylline A] | 211 nM | 173 nM | 193 nM | 197 nM | 206 nM
AACUGUCAAGGCCGACAUUACUGAGGUGAUACCAGCAUCGAAAGAUGCCCUUGGCAGCACCAACUUGCAGUGAUGUUGCAAGUAA [BrourdMod 14 - Jieux - Exclusion - Theophylline A] | 191 nM | 158 nM | 170 nM | 198 nM | 184 nM
AAGAAGGUCAAAGACCUUCGUGCACCUGAUACCAGUCGCGAAAGCGACCCUUGGCAGCAGGGCAGUGAUGUUGCCAAGUGCACAA [Omei KL Theo A SS A v1] | 782 nM | 650 nM | 898 nM | 400 nM | 823 nM
AAGAAGGUCAAAGACCUUCGUGCUCGUGAUACCAGUCGCGAAAGCGGCCCUUGGCAGCACGGCAGUGAUGUUGCCAAGAGCACAA [#13 K4 Theophylline A Same State] | 318 nM | 86.6 nM | 190 nM | 413 nM | 211 nM

Sequence | apparent KD of K4 kissing-loop reporter (input ligand: FMN 200 uM) | apparent KD of K4 kissing-loop reporter (input ligand: arginine 13.2 mM) | apparent KD of K4 kissing-loop reporter (input ligand: none) | apparent KD of K4 kissing-loop reporter [1] | apparent KD of K4 kissing-loop reporter [2]
AAGAGAUCGAGAAGGAGCGAGAAAGCUAGUACAUAUGUACUAGCAAAGCAGUGAUGUUGCACUCAGGUAGGUCGCUCGAUCUCAA [AK1 SS Arginine B] | 395 nM | 299 nM | 432 nM | 335 nM | 314 nM
AAGAGCUAGGCGGCCGCCACUAGUUGUGAACACAUACAAGCCAGUGAUGUUGGUAUGGUGGACGGUAGGACCGGGCCUAGCUGAA [Exclusion - Tryptophan B (Freestyle 16)] | 180 nM | 229 nM | 224 nM | 259 nM | 283 nM
AAGAGGUAGGCGGCCGCCACUAGUUGUGAACACAUACGAGCCAGUGAUGUUGGUAUUGUGGGCGGUAGGACCGGGCCUACCUGAA [Exclusion - Tryptophan B (Freestyle 19)] | 319 nM | 336 nM | 358 nM | 322 nM | 281 nM
AAGCAGUCACGCGAAGCCAUCGAAGAUGGCCGAGGACCGGUACGGCCGCCACUCGGAGUGAUGUUCCGAAGACUGCAAAAUAAAA | 370 nM | 386 nM | 417 nM | 468 nM | 252 nM
AAGCAGUCACUCAAAGCCAUCGAAGAUGGACGAGGACCGGUACGGCCGCCACUCGGAGUGAUGUUCCGAAGACUGCAAAAUAAAA | 408 nM | 295 nM | 304 nM | 511 nM | 230 nM
AAGCAGUCACUCAAAGCCAUCGAAGAUGGUCGAGGACCGGUACGGCCGCCACUCGGAGUGAUGUUCCGAAGACUGCAAAAUAAAA | 407 nM | 394 nM | 424 nM | 411 nM | 346 nM
AAGCAGUCACUCUAAGCCAUCGAAGAUGGACGAGGACCGGUACGGCCGCCACUCGGAGUGAUGUUCCGAAGACUGCAAAAUAAAA | 379 nM | 402 nM | 466 nM | 396 nM | 399 nM
AAGCAGUCUCUUGUAGUCAUCGAAGAUGAACGAGGACCGGUACGGCCGCCACUCGGAGUGAUGUUCCGAAGACUGCAAAAUAAAA [MatMod 17 - Jieux - Exclusion - Tryptophan A] | 581 nM | 422 nM | 1010 nM | 765 nM | 180 nM
AAGCAUUGGUCUGAUACCAGUUGAUGACGAAUACGUCAACUGGAGUGAUGUUCCUAAAACAACCCUUGGCAGCAGACCGAUGCAA [MAT - Same State Theophlline B - Mod of Eli - D2] | 761 nM | 704 nM | 835 nM | 750 nM | 838 nM
AAGCCAGAGAUUGCUGCGGGUUCCAGAGAUACCAGCCGUAUUGAAGGCCCUUGGCAGCUCGAGUGAUGUUCGAGCCGUCUCCGGC [Onte] | 111 nM | 110 nM | 114 nM | 116 nM | 113 nM
AAGGCAGUUCGAGGAUAUCACAUACACUCCUUGAAUCAAGGAGUGAUGUUCCUUGAAGUGUAUGCAUGAGAAGGCGAAUUGCCUU [FMN B SS t5] | 113 nM | 103 nM | 109 nM | 103 nM | 101 nM
AAGGGCGAGGUAACGUGGAUAUCUCGUCGCAAGGAUAUCUGGAAACAGAGAAGGUGCUACAUUACCGGCAGUGAUGUUGCUGACC | 887 nM | 312 nM | 573 nM | 278 nM | 261 nM
AAGGUAUCACCAACUUGCAACAAAGGUGAUACCAGCAUCGAAAGAUGCCCUUGGCAGCACCAACUUGCAGUGAUGUUGCAAGUAA [(T)'-(H)'-(T1)-(T2)-(H1)-(H2)_Design10] | 170 nM | 161 nM | 159 nM | 186 nM | 170 nM
AAGGUCACUACUACAGUGAUGUUGUAGGAGCAGGAUAUGCAGAAAUGCAGAAGGGCUCGCUCCAGGUGACCGAAUGAAACAUUCA [Omei KL FMN A SS A v3] | 333 nM | 504 nM | 573 nM | 475 nM | 501 nM
AAGGUUCGUGGAAGGAGCGCCCGUGCGACUCGUUCAGUAAGUGAAGUCCGAGUGAUGUUCGGGCAGGUAGGUCGCCACGGGCAAA [Usontezaon] | 196 nM | 137 nM | 160 nM | 123 nM | 157 nM
AAGGUUGUGCAUGGGAGUGAUGUUCCCACGCAGGAUAUCGCUCACGCGAGAAGGGCGAGCACAACCGCUCAAGAAACUUGAGCAA [Omei KL FMN A SS C v2] | 133 nM | 118 nM | 133 nM | 106 nM | 126 nM
AAGUCACAGGCAGGAUAUGCUUAGUAAUAAGGCCAUAUAUACGUAUAGAGUGAUGUUUUGUACCAGGCAGAAGGGCUACAUCCGU [FMN B Excl V3 (+2GCs)] | 876 nM | 503 nM | 882 nM | 650 nM | 597 nM
AAGUCACAGGCAGGAUAUGCUUAGUAUUAAGGCCAUAUAUACGUAUAGAGUGAUGUUUUGUACCAGGCAGAAGGGCUACAUCCGU [FMN B Excl V4 (+U)] | 930 nM | 440 nM | 656 nM | 645 nM | 463 nM
AAGUCAUAGGCAGGAUAUGCAUUGUAGUAAGGCAAUAUAUACGUAUAGAGUGAUGUUUUGUACCAGGCAGAAGGGCUACAUCAGU [FMN B Excl V11 (+G)] | 826 nM | 367 nM | 645 nM | 868 nM | 492 nM
AAGUCUCGUUAAUUCGUGGUUUCGAUCGAUACCAGUAGCGAGAGUUACCCUUGGCAGCGAAAUGAGUGAUGUUCAUGAAAGAAGA [KL-XTheoA10] | 65.1 nM | 101 nM | 64.6 nM | 107 nM | 60 nM
AAGUGAUGUUGUAGUGAUGUUGUGAUGUUGCAGGAUAUAUAGUGAUGUAGAAGGGUAUGUACUUAUUUUUUUUUUGAGUUUUGUU [xgghzrmullin] | 82 nM | 32.3 nM | 60.2 nM | 47.1 nM | 68.3 nM

Source: the supplement of paper PMC9170038
